We go through 45 molecules from paper PMC9352680, “A comprehensive thermodynamic model for RNA binding by the Saccharomyces cerevisiae Pumilio protein PUF4”.

The target in this data set is T1, PUF4 RNA-binding domain (Saccharomyces cerevisiae, UniProt P25339 537-888).
T1 sequence: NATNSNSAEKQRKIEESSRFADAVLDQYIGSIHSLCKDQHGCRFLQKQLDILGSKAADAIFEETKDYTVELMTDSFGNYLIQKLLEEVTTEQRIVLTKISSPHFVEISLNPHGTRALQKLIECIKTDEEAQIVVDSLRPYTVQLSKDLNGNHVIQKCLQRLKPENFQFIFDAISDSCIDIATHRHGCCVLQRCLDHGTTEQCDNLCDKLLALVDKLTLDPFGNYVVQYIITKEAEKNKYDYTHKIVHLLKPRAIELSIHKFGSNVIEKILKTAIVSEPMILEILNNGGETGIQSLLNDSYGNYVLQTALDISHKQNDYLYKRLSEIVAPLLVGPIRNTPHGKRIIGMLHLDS
Kind of data set: Mg; RNA-MaP; 20 mM Na-HEPES pH 7.4, 30 mM KOAc, 0.75 mM MgCl2, 0.1% Tween-20, 5% glycerol, 0.1 mg/mL BSA, 2 mM DTT; 25 C; 0.0125-409.6 nM protein. The conditions noted are these: tags: N-His6-TEV cleaved; C-SNAP kept, Cy3B-labelled; label: tethered on chip by stalled RNA polymerase.

Take UCUCUUCAUAUAUAUUAAUUCUCUU (ssRNA) [Id_ii_S1_P4E.3_K4.2_C4.2_[T-1A]_H4.2_A4.1_F4.1_T4.2_[G10A]]: the affinity, expressed as Kd, was 36.3 nM.
As to UCUCUUUGUGUAAUAUCUCUU (ssRNA) [Ib_S1_P4E.1_K4.1_C4.1_H4.1_[A4G]_A4.1_[T7A]_F4.1_T4.1], the Kd (as a rule, a measure of binding affinity in units of concentration) is 10.4 nM.
On to UCUCUUCAUAUAUAUUAUUUCUCUU (ssRNA) [Id_ii_S1_P4E.3_K4.2_C4.2_[T-1A]_H4.2_A4.1_F4.1_T4.2_[G10T]], for which the dissociation constant (Kd) is 21.2 nM.
UCUCUUCCUAUAUAUUAAGUCUCUU (ssRNA) [Id_ii_S1_P4E.3_K4.2_C4.2_[T-1C]_H4.2_A4.1_F4.1_T4.2_[G10A]_[T11G]] had a Kd of 87.6 nM.
Under UCUCUUCUUAUAUAUUACGUCUCUU (ssRNA) [Id_ii_S1_P4E.3_K4.2_C4.2_H4.2_A4.1_F4.1_T4.2_[G10C]_[T11G]] stands 16.6 nM; under UCUCUUCAUAUAUAUUACAUCUCUU (ssRNA) [Id_ii_S1_P4E.3_K4.2_C4.2_[T-1A]_H4.2_A4.1_F4.1_T4.2_[G10C]_[T11A]], 27.8 nM; under UCUCUUCGUAUAUAUUAAAUCUCUU (ssRNA) [Id_ii_S1_P4E.3_K4.2_C4.2_[T-1G]_H4.2_A4.1_F4.1_T4.2_[G10A]_[T11A]], 51.6 nM.
Under UCUCUUCCUAUAUAUUACUUCUCUU (ssRNA) [Id_ii_S1_P4E.3_K4.2_C4.2_[T-1C]_H4.2_A4.1_F4.1_T4.2_[G10C]] stands 20.1 nM; under UCUCUUCCUAUAUAUUAUGUCUCUU (ssRNA) [Id_ii_S1_P4E.3_K4.2_C4.2_[T-1C]_H4.2_A4.1_F4.1_T4.2_[G10T]_[T11G]], 21.1 nM; under UCUCUUCCUAUAUAUUACGUCUCUU (ssRNA) [Id_ii_S1_P4E.3_K4.2_C4.2_[T-1C]_H4.2_A4.1_F4.1_T4.2_[G10C]_[T11G]], 32.8 nM.
Consider UCUCUUCAUAUAUAUUAGUUCUCUU (ssRNA) [Id_ii_S1_P4E.3_K4.2_C4.2_[T-1A]_H4.2_A4.1_F4.1_T4.2], for which the dissociation constant (Kd) came to 8.18 nM.
Molecule UCUCUUCAUAUAUAUUACGUCUCUU (ssRNA) [Id_ii_S1_P4E.3_K4.2_C4.2_[T-1A]_H4.2_A4.1_F4.1_T4.2_[G10C]_[T11G]] came in with a Kd of 34.8 nM.
Molecule UCUCUUCUUAUAUAUUACUUCUCUU (ssRNA) [Id_ii_S1_P4E.3_K4.2_C4.2_H4.2_A4.1_F4.1_T4.2_[G10C]] registered a Kd of 18.3 nM.
Under UCUCUUCUUAUAUAUUACAUCUCUU (ssRNA) [Id_ii_S1_P4E.3_K4.2_C4.2_H4.2_A4.1_F4.1_T4.2_[G10C]_[T11A]] stands 13.5 nM; under UCUCUUCUUAUAUAUUAUUUCUCUU (ssRNA) [Id_ii_S1_P4E.3_K4.2_C4.2_H4.2_A4.1_F4.1_T4.2_[G10T]], 15.7 nM; under UCUCUUCGUAUAUAUUAGCUCUCUU (ssRNA) [Id_ii_S1_P4E.3_K4.2_C4.2_[T-1G]_H4.2_A4.1_F4.1_T4.2_[T11C]], 9.29 nM.
With UCUCUUCCUAUAUAUUAUCUCUCUU (ssRNA) [Id_ii_S1_P4E.3_K4.2_C4.2_[T-1C]_H4.2_A4.1_F4.1_T4.2_[G10T]_[T11C]], the Kd was 18.5 nM.
Take UCUCUUCAUAUAUAUUAUCUCUCUU (ssRNA) [Id_ii_S1_P4E.3_K4.2_C4.2_[T-1A]_H4.2_A4.1_F4.1_T4.2_[G10T]_[T11C]]: the Kd stood at 25 nM.
Consider UCUCUUCCUAUAUAUUACCUCUCUU (ssRNA) [Id_ii_S1_P4E.3_K4.2_C4.2_[T-1C]_H4.2_A4.1_F4.1_T4.2_[G10C]_[T11C]], for which the Kd was 28 nM.
As for UCUCUUCGUAUAUAUUAGUUCUCUU (ssRNA) [Id_ii_S1_P4E.3_K4.2_C4.2_[T-1G]_H4.2_A4.1_F4.1_T4.2], the Kd is 8.31 nM.
In turn, UCUCUUCGUAUAUAUUAAGUCUCUU (ssRNA) [Id_ii_S1_P4E.3_K4.2_C4.2_[T-1G]_H4.2_A4.1_F4.1_T4.2_[G10A]_[T11G]] came in with a dissociation constant (Kd) of 101 nM. Against the preceding molecule, the Kd is about 12-fold higher.
In turn, UCUCUUCAUAUAUAUUACUUCUCUU (ssRNA) [Id_ii_S1_P4E.3_K4.2_C4.2_[T-1A]_H4.2_A4.1_F4.1_T4.2_[G10C]] registered a Kd of 21 nM.
Consider UCUCUUCAUAUAUAUUAGAUCUCUU (ssRNA) [Id_ii_S1_P4E.3_K4.2_C4.2_[T-1A]_H4.2_A4.1_F4.1_T4.2_[T11A]], for which binding was characterised by a dissociation constant (Kd) of 19.9 nM.
In the case of UCUCUUCAUAUAUAUUAACUCUCUU (ssRNA) [Id_ii_S1_P4E.3_K4.2_C4.2_[T-1A]_H4.2_A4.1_F4.1_T4.2_[G10A]_[T11C]], the Kd is 39.7 nM.
Consider UCUCUUCCUAUAUAUUAAAUCUCUU (ssRNA) [Id_ii_S1_P4E.3_K4.2_C4.2_[T-1C]_H4.2_A4.1_F4.1_T4.2_[G10A]_[T11A]], for which the dissociation constant Kd is 30.4 nM.
UCUCUUUGUGUACUAUCUCUU (ssRNA) [Ib_S1_P4E.1_K4.1_C4.1_H4.1_[A4G]_A4.1_[T7C]_F4.1_T4.1] showed a Kd of 6.14 nM.
With UCUCUUCUUAUAUAUUAGCUCUCUU (ssRNA) [Id_ii_S1_P4E.3_K4.2_C4.2_H4.2_A4.1_F4.1_T4.2_[T11C]], the Kd amounted to 7.8 nM. The Kd values of the last two molecules are within 1.5-fold of each other.
The molecule UCUCUUAUUAUAUAUUAGCUCUCUU (ssRNA) [Id_ii_S1_P4E.3_K4.2_C4.2_[C-2A]_H4.2_A4.1_F4.1_T4.2_[T11C]] came in with a Kd of 15.7 nM.
Under UCUCUUCUUAUAUAUUAAAUCUCUU (ssRNA) [Id_ii_S1_P4E.3_K4.2_C4.2_H4.2_A4.1_F4.1_T4.2_[G10A]_[T11A]] stands 43.5 nM; under UCUCUUCUUAUAUAUUAUCUCUCUU (ssRNA) [Id_ii_S1_P4E.3_K4.2_C4.2_H4.2_A4.1_F4.1_T4.2_[G10T]_[T11C]], 13.9 nM.
Take UCUCUUCAUAUAUAUUAGGUCUCUU (ssRNA) [Id_ii_S1_P4E.3_K4.2_C4.2_[T-1A]_H4.2_A4.1_F4.1_T4.2_[T11G]]: binding was characterised by a dissociation constant (Kd) of 18.2 nM.
Molecule UCUCUUCUUAUAUAUUAAUUCUCUU (ssRNA) [Id_ii_S1_P4E.3_K4.2_C4.2_H4.2_A4.1_F4.1_T4.2_[G10A]] showed a Kd of 18.9 nM.
Take UCUCUUCGUAUAUAUUAUUUCUCUU (ssRNA) [Id_ii_S1_P4E.3_K4.2_C4.2_[T-1G]_H4.2_A4.1_F4.1_T4.2_[G10T]]: the dissociation constant (Kd) turned out to be 21.9 nM.
UCUCUUUGUAUUACUAUCUCUU (ssRNA) [Ia_S1_P5E.1_K5.1_C5.1_H5.1_A5.1_F5.1_[T8C]_T5.1] showed a dissociation constant Kd of 9.98 nM. This Kd lies about 2.2-fold lower than the previous one.
UCUCUUUGUGUAGUAUCUCUU (ssRNA) [Ib_S1_P4E.1_K4.1_C4.1_H4.1_[A4G]_A4.1_[T7G]_F4.1_T4.1] showed a Kd of 18.3 nM.
For the molecule UCUCUUCCUAUAUAUUAAUUCUCUU (ssRNA) [Id_ii_S1_P4E.3_K4.2_C4.2_[T-1C]_H4.2_A4.1_F4.1_T4.2_[G10A]], the equilibrium dissociation constant (Kd) is 27.1 nM.
Molecule UCUCUUCGUAUAUAUUAACUCUCUU (ssRNA) [Id_ii_S1_P4E.3_K4.2_C4.2_[T-1G]_H4.2_A4.1_F4.1_T4.2_[G10A]_[T11C]] had an equilibrium dissociation constant (Kd) of 29.9 nM.
As to UCUCUUCAUAUAUAUUAGCUCUCUU (ssRNA) [Id_ii_S1_P4E.3_K4.2_C4.2_[T-1A]_H4.2_A4.1_F4.1_T4.2_[T11C]], the dissociation constant (Kd) was 8.31 nM. Compared with the last molecule, the Kd is about 3.6-fold lower.
UCUCUUUGUAUAUCUCUCUU (ssRNA) [Ia_S1_P3E.1_K3.1_C3.1_H3.1_A3.1_F3.1_[A8C]_T3.1] returned an equilibrium dissociation constant (Kd) of 14.8 nM. Against the preceding molecule, the Kd is about 1.8-fold higher.
With UCUCUUCCUAUAUAUUAUAUCUCUU (ssRNA) [Id_ii_S1_P4E.3_K4.2_C4.2_[T-1C]_H4.2_A4.1_F4.1_T4.2_[G10T]_[T11A]], the Kd came out at 14.5 nM.
As for UCUCUUCCUAUAUAUUAUUUCUCUU (ssRNA) [Id_ii_S1_P4E.3_K4.2_C4.2_[T-1C]_H4.2_A4.1_F4.1_T4.2_[G10T]], the figure is 26.9 nM.
UCUCUUCUUAUAUAUUAUAUCUCUU (ssRNA) [Id_ii_S1_P4E.3_K4.2_C4.2_H4.2_A4.1_F4.1_T4.2_[G10T]_[T11A]] registered a dissociation constant (Kd) of 27.7 nM.
Molecule UCUCUUCUUAUAUAUUAUGUCUCUU (ssRNA) [Id_ii_S1_P4E.3_K4.2_C4.2_H4.2_A4.1_F4.1_T4.2_[G10T]_[T11G]] yielded a Kd of 12.2 nM.
For the molecule UCUCUUCCUAUAUAUUAACUCUCUU (ssRNA) [Id_ii_S1_P4E.3_K4.2_C4.2_[T-1C]_H4.2_A4.1_F4.1_T4.2_[G10A]_[T11C]], the dissociation constant (Kd) was determined as 29.3 nM.
With UCUCUUUGUUUUUUAUCUCUU (ssRNA) [Ib_S1_P4E.1_K4.1_C4.1_H4.1_[A4T]_A4.1_[A6T]_F4.1_T4.1], the equilibrium dissociation constant (Kd) is 100 nM. Compared with the last molecule, the Kd is about 3.4-fold higher.
